{
  "source": "patent US20220048996A1",
  "about": "(F STAR BETA, published 2022)",
  "key": {"[1]": {"biological_target": "T1, hFcγR1 (R&D Systems 1257-FC-050/CF) (human, UniProt P12314 16-288)", "T1 construct": "Bought; also called FcγRI", "T1 sequence (P12314 16-288 limits assumed)": "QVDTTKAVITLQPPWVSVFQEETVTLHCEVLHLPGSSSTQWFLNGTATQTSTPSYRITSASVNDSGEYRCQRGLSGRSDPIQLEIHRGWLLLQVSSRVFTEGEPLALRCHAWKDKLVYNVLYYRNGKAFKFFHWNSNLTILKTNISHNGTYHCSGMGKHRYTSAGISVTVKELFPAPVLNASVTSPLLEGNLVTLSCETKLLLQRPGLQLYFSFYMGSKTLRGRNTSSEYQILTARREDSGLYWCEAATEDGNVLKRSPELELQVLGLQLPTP", "assay": "SPR, antibody 100 nM on CD137-his chip co-injected with FcγR 500 nM", "method": "(§1) Binding was tested on a Biacore 3000 instrument (GE Healthcare). Human OX40 (BPS Bioscience cat no 71310) and human CD137 (produced in house) biotinylated his-tagged antigens were coated onto an SA chip (GE Healthcare cat no BR100398) at 2 μM concentration. Human OX40 and human CD137 were coated on separate flow cells, while another flow cell was left blank for background subtraction. Regeneration conditions were determined to be 12 μl aqueous 10 mM glycine-HCl at pH2.0 at 20 μl/min flow rate. Antibodies (see Table 8) and human FcγRs (see Table 8) were diluted to 100 nM (antibodies) or 500 nM (human FcγRs) in HBS-P (0.01 M HEPES pH 7.4, 0.15 M NaCl, 0.005% v/v Surfactant P20, GE Healthcare, BR-1003-68) and co-injected at 20 μl/min flow rate and the dissociation was followed for 5 min.\n(§2) Data analysis was performed with BiaEvaluation software version 3.2 RC1 by referencing against the blank flow cell and aligning the curves after the association of the antibody. Values for binding response at the end of the association phase were generated by subtracting the […] to normalize the effect of the antibody binding to the OX40 and CD137 receptors."}, "hOX40-mFc": {"biological_target": "T2, hOX40-mFc (human)", "T2 construct": "Dimeric; also called human OX40-mFc", "T2 chain": "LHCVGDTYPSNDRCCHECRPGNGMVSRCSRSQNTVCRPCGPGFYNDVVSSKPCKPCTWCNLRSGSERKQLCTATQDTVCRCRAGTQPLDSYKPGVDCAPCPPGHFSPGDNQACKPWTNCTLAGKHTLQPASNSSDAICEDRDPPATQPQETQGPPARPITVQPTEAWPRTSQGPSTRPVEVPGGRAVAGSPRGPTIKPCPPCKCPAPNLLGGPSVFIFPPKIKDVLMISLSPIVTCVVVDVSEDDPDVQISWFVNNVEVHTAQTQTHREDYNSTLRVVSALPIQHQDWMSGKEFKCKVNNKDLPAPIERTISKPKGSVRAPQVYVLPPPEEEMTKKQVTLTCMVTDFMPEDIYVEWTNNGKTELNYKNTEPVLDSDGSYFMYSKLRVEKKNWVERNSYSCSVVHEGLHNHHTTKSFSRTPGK", "assay": "SPR, antibody captured via anti-human Fab, dimeric antigen flowed, 1:1 fit", "method": "(§3) For OX40 affinity determination a Biacore CM5 chip was coated with anti-human Fab using a Human Fab Capture Kit (GE Healthcare 28958325) according to manufacturer's conditions, to a surface density of approximately 8000 RU. […] The association time was 2 min and the dissociation time was 8 min. Running buffer was HBS-EP. Flow cells were regenerated by injecting glycine-HCl at pH 2.1 at a flow rate of 30 μl/min for 30 seconds.\n(§4) The binding kinetics were fit with a 1:1 Langmuir model to generate binding association (kₐ) and dissociation (kd) rates. Equilibrium binding constants (KD) were calculated by dividing the dissociation rate by the association rate for each sample. Data analysis was performed with BiaEvaluation software version 3.2."}, "cOX40-mFc": {"biological_target": "T3, cOX40-mFc (cynomolgus)", "T3 construct": "Dimeric; also called cyno OX40-mFc", "T3 chain": "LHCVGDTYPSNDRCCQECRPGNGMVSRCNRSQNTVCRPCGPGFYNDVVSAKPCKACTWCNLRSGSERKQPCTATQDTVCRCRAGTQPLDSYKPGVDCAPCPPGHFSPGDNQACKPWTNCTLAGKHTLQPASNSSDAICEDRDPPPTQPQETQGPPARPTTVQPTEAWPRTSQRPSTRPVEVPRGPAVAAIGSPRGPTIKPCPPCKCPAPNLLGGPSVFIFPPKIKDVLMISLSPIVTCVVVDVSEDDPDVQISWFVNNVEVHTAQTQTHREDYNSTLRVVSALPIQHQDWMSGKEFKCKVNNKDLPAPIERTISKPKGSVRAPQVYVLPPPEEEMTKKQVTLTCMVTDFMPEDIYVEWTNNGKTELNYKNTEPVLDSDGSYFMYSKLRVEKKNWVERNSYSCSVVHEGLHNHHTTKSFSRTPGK", "assay": "SPR, antibody captured via anti-human Fab, dimeric antigen flowed, 1:1 fit", "method": "as §3, §4"}, "[2]": {"biological_target": "T4, hFcγR2b (R&D Systems 1460-CD-050/CF) (human, UniProt P31994 46-217, limits assumed)", "T4 construct": "Bought; also called FcγRIIb", "T4 sequence (looked up)": "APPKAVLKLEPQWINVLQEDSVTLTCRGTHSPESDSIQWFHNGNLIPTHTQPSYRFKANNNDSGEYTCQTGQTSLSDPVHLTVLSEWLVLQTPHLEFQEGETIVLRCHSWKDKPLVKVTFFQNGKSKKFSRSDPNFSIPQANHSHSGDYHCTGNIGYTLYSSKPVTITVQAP", "assay": "SPR, antibody 100 nM on OX40-his chip co-injected with FcγR 500 nM", "method": "as §1, §2"}, "[3]": {"biological_target": "T5, hFcγR2a (R&D Systems 1330-CD-050/CF) (human, UniProt P12318 36-218, limits assumed)", "T5 construct": "Bought; also called FcγRIIa", "T5 sequence (looked up)": "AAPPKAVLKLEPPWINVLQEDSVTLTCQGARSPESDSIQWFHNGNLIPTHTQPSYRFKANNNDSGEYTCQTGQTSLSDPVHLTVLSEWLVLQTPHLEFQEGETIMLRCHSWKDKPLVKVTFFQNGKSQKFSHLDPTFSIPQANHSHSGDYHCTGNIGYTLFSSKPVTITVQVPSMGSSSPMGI", "assay": "SPR, antibody 100 nM on OX40-his chip co-injected with FcγR 500 nM", "method": "as §1, §2"}, "[4]": {"biological_target": "T6, hFcγR3a (R&D Systems 4325-FC-050/CF) (human, UniProt P08637 17-208)", "T6 construct": "Bought; In the ADCC bioassay FcγRIIIa stood on engineered Jurkat cells; also called FcγRIIIa", "T6 sequence (P08637 17-208 limits assumed)": "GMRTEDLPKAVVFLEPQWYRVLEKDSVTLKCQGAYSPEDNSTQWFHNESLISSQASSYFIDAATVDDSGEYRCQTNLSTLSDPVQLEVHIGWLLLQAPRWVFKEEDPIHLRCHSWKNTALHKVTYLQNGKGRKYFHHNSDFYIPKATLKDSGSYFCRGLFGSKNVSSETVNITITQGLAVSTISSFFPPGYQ", "assay": "SPR, antibody 100 nM on OX40-his chip co-injected with FcγR 500 nM", "method": "as §1, §2"}, "[5]": {"biological_target": "T1, hFcγR1 (R&D Systems 1257-FC-050/CF)", "assay": "SPR, antibody 100 nM on OX40-his chip co-injected with FcγR 500 nM", "method": "as §1, §2"}},
  "data": [
    {"binder": "FS20-22-49AA/FS30-10-16 (bispecific antibody, human IgG1, kappa, L234A L235A, IgG1 with LALA; also called OX40/CD137 mAb^2; copies: 2 + 2) heavy: EVQLLESGGGLVQPGGSLRLSCAASGFTFSSYDMSWVRQAPGKGLEWVSDIDPTGSKTDYADSVKGRFTISRDNSKNTLYLQMNSLRAEDTAVYYCARDLLVYGFDYWGQGTLVTVSSASTKGPSVFPLAPSSKSTSGGTAALGCLVKDYFPEPVTVSWNSGALTSGVHTFPAVLQSSGLYSLSSVVTVPSSSLGTQTYICNVNHKPSNTKVDKKVEPKSCDKTHTCPPCPAPEAAGGPSVFLFPPKPKDTLMISRTPEVTCVVVDVSHEDPEVKFNWYVDGVEVHNAKTKPREEQYNSTYRVVSVLTVLHQDWLNGKEYKCKVSNKALPAPIEKTISKAKGQPREPQVYTLPPSRDEYWDQEVSLTCLVKGFYPSDIAVEWESNGDEQFAYKTTPPVLDSDGSFFLYSKLTVDQYRWNPADYFSCSVMHEALHNHYTQKSLSLSPG light: EIVLTQSPGTLSLSPGERATLSCRASQSVSSSYLAWYQQKPGQAPRLLIYGASSRATGIPDRFSGSGSGTDFTLTISRLEPEDFAVYYCQQSYSYPVTFGQGTKVEIKRTVAAPSVFIFPPSDEQLKSGTASVVCLLNNFYPREAKVQWKVDNALQSGNSQESVTEQDSKDSTYSLSSTLTLSKADYEKHKVYACEVTHQGLSSPVTKSFNRGEC", "values": [
      {"measurement": "binding response at end of association phase of FcγR", "setting": "[1]", "value": 246, "unit": "RU"},
      {"measurement": "decrease of binding response at end of dissociation phase of FcγR", "setting": "[1]", "value": 367, "unit": "RU"},
      {"measurement": "Kd", "setting": "hOX40-mFc", "value": 214, "unit": "pM"},
      {"measurement": "Kd", "setting": "cOX40-mFc", "value": 861, "unit": "pM"},
      {"measurement": "binding response at end of association phase of FcγR", "setting": "[2]", "value": 34.3, "unit": "RU"},
      {"measurement": "binding response at end of association phase of FcγR", "setting": "[3]", "value": 37.4, "unit": "RU"},
      {"measurement": "binding response at end of association phase of FcγR", "setting": "[4]", "value": 31.4, "unit": "RU"},
      {"measurement": "binding response at end of association phase of FcγR", "setting": "[5]", "value": 238, "unit": "RU"}
    ]}
  ]
}
